Blank lines part the entries; values can stand above or below the binder they belong to.
Experiments:
[1] = biological target: T1, human CD3e (hCD3e) extracellular region with FLAG tag (human, UniProt P07766 22-129); assay: biolayer interferometry (Octet RED384), antibody on Protein G biosensor, human CD3e in solution; antigen concentration not given [a]
Procedure: (§1) The antibody (6RhCEB3(2)_10) obtained in the paragraph (6-2) or an anti-CD3 antibody hCE115HA/L0000 (heavy chain: SEQ ID NO: 42; light chain: SEQ ID NO: 66) was evaluated for its binding activity against soluble human IL-6R and human CD3e (hCD3e) using Octet RED384 (forteBIO). The binding evaluation was conducted using HBS-EP+Buffer (GE Healthcare Japan Corp.) as a buffer.
(§2) After binding of the antibody to Protein G Biosensors (forteBIO), soluble human IL-6R or human CD3e was allowed to interact with the antibody on the biosensor through contact therebetween for 120 seconds, and subsequently contacted with the buffer for 120 seconds to measure the antibody-antigen interaction. Then, the biosensor was regenerated through contact with 10 mmol/L glycine-HCl (pH 1.5). The measurement was conducted at 30° C.

soluble human IL-6R [2] = biological target: T2, soluble human IL-6R (human, UniProt P08887 20-357); assay: biolayer interferometry (Octet RED384), antibody on Protein G biosensor, soluble human IL-6R in solution, 120 s association and 120 s dissociation [a]
T2 construct: Analyte in the Octet experiments; also called hIL-6R; soluble hIL-6R
T2 sequence: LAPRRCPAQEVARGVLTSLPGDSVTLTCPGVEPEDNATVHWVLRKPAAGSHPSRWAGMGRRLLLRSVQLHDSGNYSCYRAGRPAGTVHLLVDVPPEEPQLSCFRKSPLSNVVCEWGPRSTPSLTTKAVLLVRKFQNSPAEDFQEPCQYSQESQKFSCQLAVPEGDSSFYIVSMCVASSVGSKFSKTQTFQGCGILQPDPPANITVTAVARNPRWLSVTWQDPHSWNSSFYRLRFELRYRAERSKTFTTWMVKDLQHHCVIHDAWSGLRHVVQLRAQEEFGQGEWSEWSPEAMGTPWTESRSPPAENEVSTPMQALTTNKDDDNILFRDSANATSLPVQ
Procedure: as §1, §2

[3] = biological target: T1, human CD3e (hCD3e) extracellular region …; assay: biolayer interferometry (Octet RED384), antibody on Protein G biosensor, human CD3e in solution, 120 s association and 120 s dissociation [b]
Procedure: as §1, §2

soluble human IL-6R [4] = biological target: T2, soluble human IL-6R; assay: biolayer interferometry (Octet RED384), antibody on Protein G biosensor, soluble human IL-6R in solution; antigen concentration not given [b]
Procedure: as §1, §2

soluble human IL-6R [5] = biological target: T2, soluble human IL-6R; assay: biolayer interferometry (Octet RED384), antibody on Protein G biosensor, soluble human IL-6R in solution, 120 s association and 120 s dissociation [b]
Procedure: (§3) Each antibody (6RNH-2_02, 6RNH-2_37, 6RNH-3(2)_32, and 6RNH-2_42) obtained in the paragraph (4-1) was evaluated for its binding activity against soluble human IL-6R using Octet RED384 (forteBIO). The binding evaluation was conducted using HBS-EP+ Buffer (GE Healthcare Japan Corp.) as a buffer.
as §2, with “IL-6R” for “IL-6R or human CD3e”

soluble human IL-6R [6] = biological target: T2, soluble human IL-6R; assay: biolayer interferometry (Octet RED384), antibody on Protein G biosensor, soluble human IL-6R in solution, 120 s association and 120 s dissociation [c]
Procedure: as §3
as §2, with “IL-6R” for “IL-6R or human CD3e”

mouse IgA [7] = biological target: T3, mouse IgA (mouse, UniProt P01878 114-344); assay: biolayer interferometry (Octet RED384), antibody on Protein G biosensor, mouse IgA in solution; antigen concentration not given [a]
T3 sequence (looked up): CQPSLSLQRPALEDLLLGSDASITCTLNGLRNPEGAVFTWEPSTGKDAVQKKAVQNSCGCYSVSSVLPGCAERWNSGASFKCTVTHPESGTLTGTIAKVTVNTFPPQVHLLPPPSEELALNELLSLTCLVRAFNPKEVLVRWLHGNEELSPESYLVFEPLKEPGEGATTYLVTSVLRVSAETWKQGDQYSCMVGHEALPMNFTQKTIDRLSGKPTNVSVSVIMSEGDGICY
Procedure: (§4) Each antibody (6RmIAB3(2)_02, 6RmIAB3(2)_06, and 6RmIAB3(2)_16) obtained in the paragraph (6-2) or an anti-mouse IgA antibody mIANMIgL_095 (heavy chain: SEQ ID NO: 41; light chain: SEQ ID NO: 65) was evaluated for its binding activity against soluble human IL-6R and mouse IgA using Octet RED384 (forteBIO). The binding evaluation was conducted using HBS-EP+Buffer (GE Healthcare Japan Corp.) as a buffer.
as §2, with “mouse IgA” for “human CD3e”

soluble human IL-6R [8] = biological target: T2, soluble human IL-6R; assay: biolayer interferometry (Octet RED384), antibody on Protein G biosensor, soluble human IL-6R in solution, 120 s association and 120 s dissociation [a]; remark: listed apart in the source
Procedure: as §4
as §2, with “mouse IgA” for “human CD3e”

mouse IgA [9] = biological target: T3, mouse IgA; assay: biolayer interferometry (Octet RED384), antibody on Protein G biosensor, mouse IgA in solution; antigen concentration not given [b]
Procedure: as §4
as §2, with “mouse IgA” for “human CD3e”

soluble human IL-6R [10] = biological target: T2, soluble human IL-6R; assay: biolayer interferometry (Octet RED384), antibody on Protein G biosensor, soluble human IL-6R in solution, 120 s association and 120 s dissociation [b]; remark: listed apart in the source
Procedure: as §4
as §2, with “mouse IgA” for “human CD3e”

soluble human IL-6R [11] = biological target: T2, soluble human IL-6R; assay: biolayer interferometry (Octet RED384), antibody on Protein G biosensor, soluble human IL-6R in solution; antigen concentration not given [d]
Procedure: as §4
as §2, with “mouse IgA” for “human CD3e”

soluble human plexin A1 [12] = biological target: T4, soluble human plexin A1 (human, UniProt Q9UIW2 27-1244); assay: biolayer interferometry (Octet RED384), antibody on Protein G biosensor, soluble human plexin A1 in solution; antigen concentration not given [a]
T4 construct: also called hPlexin A1; human Plexin A1 extracellular region
Procedure: (§5) The binding evaluation was conducted using HBS-EP+Buffer (GE Healthcare Japan Corp.) as a buffer.
(§6) After binding of the antibody to Protein G Biosensors (forteBIO), soluble human IL-6R or soluble human plexin A1 was allowed to interact with the antibody on the biosensor through contact therebetween for 120 seconds, and subsequently contacted with the buffer for 120 seconds to measure the antibody-antigen interaction. Then, the biosensor was regenerated through contact with 10 mmol/L glycine-HCl (pH 1.5). The measurement was conducted at 30° C.

soluble human IL-6R [13] = biological target: T2, soluble human IL-6R; assay: biolayer interferometry (Octet RED384), antibody on Protein G biosensor, soluble human IL-6R in solution, 120 s association and 120 s dissociation [a]; remark: listed apart in the source
Procedure: as §5, §6

soluble human IL-6R [14] = biological target: T2, soluble human IL-6R; assay: biolayer interferometry (Octet RED384), antibody on Protein G biosensor, soluble human IL-6R in solution; antigen concentration not given [b]; remark: listed apart in the source
Procedure: as §5, §6

soluble human plexin A1 [15] = biological target: T4, soluble human plexin A1; assay: biolayer interferometry (Octet RED384), antibody on Protein G biosensor, soluble human plexin A1 in solution, 120 s association and 120 s dissociation [b]
Procedure: as §5, §6

T1 sequence (P07766 other isoform, or with tags, fused parts or gaps): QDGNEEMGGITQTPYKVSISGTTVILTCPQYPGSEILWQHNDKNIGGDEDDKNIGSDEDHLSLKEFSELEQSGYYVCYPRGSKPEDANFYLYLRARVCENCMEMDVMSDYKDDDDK
T4 sequence (Q9UIW2 other isoform, or with tags, fused parts or gaps): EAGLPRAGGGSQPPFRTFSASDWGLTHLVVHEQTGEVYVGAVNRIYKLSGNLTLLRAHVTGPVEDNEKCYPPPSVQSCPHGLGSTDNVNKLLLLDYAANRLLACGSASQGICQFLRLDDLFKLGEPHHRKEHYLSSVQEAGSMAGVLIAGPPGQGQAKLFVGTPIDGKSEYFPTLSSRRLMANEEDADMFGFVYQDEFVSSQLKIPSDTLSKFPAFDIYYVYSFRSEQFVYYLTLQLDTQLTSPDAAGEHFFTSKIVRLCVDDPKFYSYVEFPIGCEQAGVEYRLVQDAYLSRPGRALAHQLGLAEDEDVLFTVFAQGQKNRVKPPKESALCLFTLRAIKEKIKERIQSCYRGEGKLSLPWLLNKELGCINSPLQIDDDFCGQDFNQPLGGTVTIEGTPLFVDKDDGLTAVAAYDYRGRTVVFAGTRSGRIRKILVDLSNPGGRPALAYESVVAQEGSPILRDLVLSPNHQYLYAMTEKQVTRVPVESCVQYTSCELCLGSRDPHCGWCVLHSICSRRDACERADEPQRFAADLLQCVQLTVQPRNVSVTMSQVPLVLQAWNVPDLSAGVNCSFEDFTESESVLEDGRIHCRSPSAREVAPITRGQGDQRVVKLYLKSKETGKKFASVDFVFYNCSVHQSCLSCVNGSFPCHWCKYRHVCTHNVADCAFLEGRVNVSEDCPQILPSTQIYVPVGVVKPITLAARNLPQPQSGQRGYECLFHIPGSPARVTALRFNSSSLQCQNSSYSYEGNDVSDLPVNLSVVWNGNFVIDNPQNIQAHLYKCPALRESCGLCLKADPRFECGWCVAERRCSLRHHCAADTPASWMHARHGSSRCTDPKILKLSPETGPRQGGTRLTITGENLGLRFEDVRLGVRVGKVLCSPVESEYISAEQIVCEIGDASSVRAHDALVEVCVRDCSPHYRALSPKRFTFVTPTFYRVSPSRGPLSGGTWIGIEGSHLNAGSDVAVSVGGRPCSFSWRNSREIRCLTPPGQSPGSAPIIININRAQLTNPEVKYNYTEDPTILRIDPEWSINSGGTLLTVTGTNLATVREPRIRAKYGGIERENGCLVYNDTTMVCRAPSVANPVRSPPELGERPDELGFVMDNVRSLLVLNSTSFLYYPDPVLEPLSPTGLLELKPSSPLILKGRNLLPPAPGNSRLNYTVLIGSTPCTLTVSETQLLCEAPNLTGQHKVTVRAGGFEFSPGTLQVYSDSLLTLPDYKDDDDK

binding result [1]: no binding | binding result (soluble human IL-6R [2]): binds
B1: 6RhCEB3(2)_10 (antibody, human IgG1, kappa, V domains shown)
VH: QVQLVQSGAEVKKPGSSVKVSCKASGGTFSSYAISWVRQAPGQGLEWMGGIIPIFGTANYAQKFQGRVTITADESTSTAYMELSSLRSEDTAVYYCARDHYDILTGYPDPTYYYYGMDVWGQGTMVTVSS
VL: DIVMTQSPLSLPVTPGEPASISCRSSQSLVHSNRNTYLHWYQQKPGQAPRLLIYKVSNRFSGVPDRFSGSGSGTDFTLKISRVEAEDVGVYYCGQGTQVPYTFGQGTKLEIKR
notes: IgG with the L chain of the humanized anti-CD3 antibody CE115

binding result [3]: binds | binding result (soluble human IL-6R [4]): no binding
B2: hCE115HA/L0000 (antibody, human IgG1, kappa, V domains shown)
VH: QVQLVESGGGVVQPGRSLRLSCAASGFTFSNAWMHWVRQAPGKGLEWVAQIKAKSNNYATYYAESVKGRFTISRDDSKNSLYLQMNSLKTEDTAVYYCRYVHYGAYYGVDAWGQGTTVTVSS
VL: DIVMTQSPLSLPVTPGEPASISCRSSQSLVHSNRNTYLHWYQQKPGQAPRLLIYKVSNRFSGVPDRFSGSGSGTDFTLKISRVEAEDVGVYYCGQGTQVPYTFGQGTKLEIKR
notes: also called anti-CD3 antibody hCE115HA/L0000; humanized anti-human CD3 antibody CE115

binding result (soluble human IL-6R [5]): binds
B3: 6RNH-2_37 (antibody, human IgG1, kappa, V domains shown)
VH: QVQLQESGPGLVRPSQTLSLTCTVSGYSITSDHAWSWVRQPPGRGLEWIGYISYSGITTYNPSLKSRVTMLRDTSKNQFSLRLSSVTAADTAVYYCARSLARTTAMDYWGQGTLVTVSS
VL: DIQMTQSPSSLSASVGDSVTITCQASQDISSYLNWYQQKPGKAPELLIYYGSELHSGVPSRFSGSGSGTDFTFTISSLEAEDAATYYCGQGNRLPYTFGQGTKVEIER
notes: IgG with the PF1 L chain

binding result (soluble human IL-6R [6]): binds
B4: 6RNH-3(2)_32 (antibody, human IgG1, kappa, V domains shown)
VH: QVQLQESGPGLVKPSETLSLTCAVSGYSISHDHAWSWVRQPPGEGLEWIGHISYSGITNYNPHLQDRVTISRDTSKNQFSLKLSSVTAADTAVYYCARFLARITAHDHWGEGTLVTVSS
VL: DIQMTQSPSSLSASVGDSVTITCQASQDISSYLNWYQQKPGKAPELLIYYGSELHSGVPSRFSGSGSGTDFTFTISSLEAEDAATYYCGQGNRLPYTFGQGTKVEIER
notes: IgG with the PF1 L chain

binding result (mouse IgA [7]): no binding | binding result (soluble human IL-6R [8]): binds
B5: 6RmIAB3(2)_02 (antibody, human IgG1, lambda, V domains shown)
VH: QVQLQESGPGLVKPSGTLSLTCAVSGGSISSSDWWSWVRQPPGKGLEWIGEIYHGGSTNYNPSLKSRVTISVDRSKNQFSLNLSSVTAADTAVYYCARAPRGSYRIDYWGQGTLVTVSS
VL: SYELTQPPSVSVSPGQSASITCSGDKLGDRFVTWYQQKPGQSPVLVMYQDNQRPSGIPERFSGSNSGNTATLTITGTPAMDEADYYCQTWDAGTGVVFGGGTKLTVLS
notes: IgG with the L chain of the anti-mouse IgA antibody mIANMIgL_095; Culture supernatant was recovered; no purification is described

binding result (mouse IgA [9]): no binding | binding result (soluble human IL-6R [10]): binds
B6: 6RmIAB3(2)_06 (antibody, human IgG1, lambda, V domains shown)
VH: QVQLVQSGAEVKKPGASVKVSCKASGYTFATSGISWVRQAPGQGLEWLGWISPYNSRTNSAQKLQGRVNMTTDTSTNTAYLELRSLTSDDTAVYYCARANGDYRNWFDPWGQGTLVTVSS
VL: SYELTQPPSVSVSPGQSASITCSGDKLGDRFVTWYQQKPGQSPVLVMYQDNQRPSGIPERFSGSNSGNTATLTITGTPAMDEADYYCQTWDAGTGVVFGGGTKLTVLS
notes: IgG with the L chain of the anti-mouse IgA antibody mIANMIgL_095; Culture supernatant was recovered

binding result (soluble human IL-6R [11]): no binding
B7: mIANMIgL_095 (antibody, human IgG1, lambda, V domains shown)
VH: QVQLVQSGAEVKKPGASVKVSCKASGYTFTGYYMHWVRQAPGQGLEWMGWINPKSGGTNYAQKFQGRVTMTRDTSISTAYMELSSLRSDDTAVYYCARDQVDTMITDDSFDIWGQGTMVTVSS
VL: SYELTQPPSVSVSPGQSASITCSGDKLGDRFVTWYQQKPGQSPVLVMYQDNQRPSGIPERFSGSNSGNTATLTITGTPAMDEADYYCQTWDAGTGVVFGGGTKLTVLS
notes: also called anti-mouse IgA antibody mIANMIgL_095

binding result (soluble human plexin A1 [12]): no binding | binding result (soluble human IL-6R [13]): binds
B8: 6RPAB3_03 (antibody, human IgG1, kappa, V domains shown)
VH: EVQLVESGGGLVQPGGSLRLSCATSGFTFSSYEMNWVRQAPGKGLEWVSYIDRSGSTIYYADSVKGRFTISRDNAKNSLYLQMNSLRAEDTAVYYCAGEWWQGDSWGQGTTVTVSS
VL: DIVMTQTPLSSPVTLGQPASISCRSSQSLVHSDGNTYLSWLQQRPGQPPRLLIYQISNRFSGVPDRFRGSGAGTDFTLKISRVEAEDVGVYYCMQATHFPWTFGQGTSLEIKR

binding result (soluble human IL-6R [14]): no binding | binding result (soluble human plexin A1 [15]): binds
B9: hPANKB2-3#135 (antibody, human IgG1, kappa, V domains shown)
VH: EVQLVQSGAEVKKPGASVKVSCKASGYTFTSYGISWVRQAPGQGLEWMGWISAYNGNTNYAQKLQGRVTMTTDTSTSTAYMELRSLRSDDTAVYYCARGGRGGDAFDIWGQGTMVTVSS
VL: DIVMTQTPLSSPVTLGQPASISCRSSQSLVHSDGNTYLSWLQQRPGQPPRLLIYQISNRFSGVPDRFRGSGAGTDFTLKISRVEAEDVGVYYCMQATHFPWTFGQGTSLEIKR

Reference: patent publication US20160264960A1 (Chugai, published 2016)
